The series is described as follows: soluble on expression in E. coli; label from the status in PepcDB or PDB records.
As for “MGSDKIHHHHHHVLADSTGHGLSAAMPIMRVASTFRAMVSKGFSLATLIYELNSKVHRENPDDRFVACIVLEVDFYRKKIHIWNGGMPPVYIKNHLETETVSDHYPVKNIIKFKSTNMALGILPSQTFVADIATVDLPVVGHACLFSDGLIEQYTNENKPFGIETLNSLFIQYASELIPYLTENFKKVFDGKPITDDITVCTLDFERLNEWHQQNNICLARSNMDGEFDWEVKLAGPMLLSAEYLNSLNQFLGMFGFATSFCQRVFTVVAELFSNAIDHGVLKLDSRLKSDPDGFELYHSIRDSSSARLTMNDWVKVSLVWCSITNELHICVADSGQGFKGYKNTVVDIPQLSGRGLSLVKTLSKTYELVSPGNITKVIME”, the “soluble on expression in E. coli” value was “not soluble”. The result for “MGSDKIHHHHHHMGHDLPPLPSRDVHAVRWYVLSLPACHKGPAKGLKKELDRRVRLGEPTFDFFAPSFVEMRRREGHLVETHRPLLYNYVFIRSSVYEIFRLKRDFPLYNFLPSVDGRGSYPFVSDREMENLRWVARSYSDELPVYVPEAGYLRKGDRIRITDGRFKGVEASVVIQPGVGEREVMVCVDNWMWVPLLRVQPGEYEVISLAEEGKHVYTRLDNSRIQNGLHEALGRHWGSCGVTAADRELAAETLRTYGELQLDSAVMRCKLYSLLLPAYTILGDEERQKSLIGTIVSFLSLIRAEQSLALLLLTLYGCTDSSIYYYRAHELIDPWSRESSPKKSKLSLIRRLADYDRWLKHNE” reads “not soluble”; that for “MVNPQAGVVVGYWHNWCGGAGYKGGVAPCVSLAQVNPQYNVVDISFMKVYGATGSIPTFKLDPAVGLSEAQFIDQIGELNRQGRAVLIALGGADAHIELRKGQEHDLANEIIRLVEKYGFDGLDIDLEQAAVTAADNQIVIPAALRIVKDHYRKQQKNFLITMAPEFPYLTTGGKYVPYINALEGYYDWINPQFYNQGGDGIYIEGIGWIAQNNDSLKQEFIYHISDALVNGTNGFTKIPHDKLVFGIPTNIDAAATGYVSDPNALFAAFEQLKNQGQPLRGLMTWSVNWDMGKNAAGQAYNESFIKAYGPFIHGQDITPPEPENGKPIFSGLSNTRVKLGGTFNAMDGVSAYDEEDKDLTQQIQVTGDVNTNQIGLYPLTYKVTDSDNNTTEQVRTVEVYNTKPELSGVSNTTIILATPFDAMAGVSATDAEDGNLTPNIRVEGEVDSNRVGQYQLTYSVSDSAGEQTRAVRLVTVQEQGAVCENLWSASKIYLGGDTVNYAGKIWLAGWWTQGEQPDLAGEWGVWKSKGDSDCDSGLPPVITPNFTVSGLASSYILNQGQVSINFNVNTNQAMELTANLTQEQRILASTTATINGNGAMVLQAESLEAGAYQVVISAKDKNLTQSYNVSLVQGDDGSEPVEYPAYVAGNQYQAGNIVTNAGGVYQCRPWPNSGWCSGSAPYYAPGTGSAWQDAWTKHLEHHHHHH”, “soluble”; that for “MSLEKLTVSDSKKLFHEQFPYVIPGLYKRIVDEMLVELNLLNHQNEFIQDDLFCVGLTETFKELTKGYKPEEHLRVLFESLCNSSNFEPKKIKEASKKTLEVYKDKSLKEISILLKQKSDSNLYSSRIMNLGIYLIIANATDFKDIKDPEKNKIISDIINKLNLSFNKAEKDIGIYKSSILKMEQAKELLQEAKIKDKKEKEGHHHHHH”, “soluble”. “AMAEAYQIQSNGDPQSKPLLELYVKASGIDARRIGADLFCQEFWMELYALYEIGVARVEVKTVNVNSEAFKKNFLGAQPPIMIEEEKELTYTDNREIEGRIFHLAKEFNVPLFEKDPSAEKRIENLYRNFKLFLRAKVEFDKGKKEPSRVEDLPAQIKVHYNRVCEQLSNIDQLLSERKSRYLLGNSMTEYDCELMPRLHHIRIIGLSLLGFDIPHNFTHLWAYILTAYRTAAFIESCPADQDIIHHYKEQMNLFTNQRETLQSPTKTHTIPEKVLSDIRVKGLAPDVNVH”: the “soluble on expression in E. coli” value was “soluble”. As for “MKKEKAIVVFSGGQDSTTCLLWALKEFEEVETVTFHYNQRHSQEVEVAKSIAEKLGVKNHLLDMSLLNQLAPNALTRNDIEIEVKDGELPSTFVPGRNLVFLSFASILAYQIGARHIITGVCETDFSGYPDCRDEFVKSCNVTVNLAMEKPFVIHTPLMWLNKAETWKLADELGALDFVKNNTLTCYNGIIADGCGECPACHLRSKGYEEYMVMKGERA”, the “soluble on expression in E. coli” value is “soluble”. With “MTINMALHYPNYFAALVPQATAYSYYQYERNNDGTYKMIEDKNSISGKSSIRTNKIWFDSQKVKTLKNIPIWFIHSAADKVVNPKTYSLPIYKSLLDSGAKNKWFSYYDNVQGKDLKDTTYNGHWSWVYFFNNQVSSVQDVKTIKKSSKLSGFKPSNKSKGGAATAKEGKKSYNNVFDWLNDQKK” the entry was “not soluble”; with “MGSDKIHHHHHHMERMKAFLTDENFKHEINFDNDLLPYKIYQTTIANGYPDALFHWHPELEISYIYEGTAQYHIDYDYFNSQTDDIILVRPNGMHSIHPIKNKMQKAQTLLFHLDLVGYSLLDQISLRYLQPLQNSTFKLVPCIKPDMLGYQDIKNCLFAIFDIYQRQGRHFELLLKAKLQELIYLLYFHQYVLRKHSDDMYRKNEKIRELIDYIHQHYQEKLFIISLADIIGYSKTHFMTVFKQHTGTSCTDFIIQFRLSKACDLLVNSIKPILEVASEVGFTNLSNFNRQFKRYYQITPSQYRKQFKKTQK”, “not soluble”. As to “MESSDIASRIWLIAGPTASGKSAYALDLAERIDGEIVNADSMQIYAGLRVLTAGPSQEETARAPHHLFQIVDPALGWSVGRWLEAATQALAEIQARGKPAIVVGGTGLYFRALTHGLADVPPVPETQREISSLLYAARGETEFREILKPLDPEAEARIESGDRQRLVRAHAVAITTGKSLTAWQTDTKPALAPGSWKGLVLDPPRAELYARCDARLAVMVEQGALDEVRALETRGLDPALPALKAVGYREFAAHLRGETSLDQALDAARQETRRYAKRQLTWFRNQTPDWERIVPLEHHHHHH”, the “soluble on expression in E. coli” value is recorded as “not soluble”. For the sequence “MAHHHHHHMFNYRREVLLDLWRKMPEAAACETVAPPEAVKGEEKRQQSVVKTQLDWLSEELKLSSSIIQSDYKVYAAFVHRRWVFMQLRRLAESALGNVGKRSKPAAPAGCQLGECAAAGEFDLPEEVLFWAKALLKEKRQGDALLAMDERNFHAWEFRRWVMYQLGQMEDLFVQSSIQFGPAVVGIKEREFASYMNGSAKSDRPRDLFFTPTEVKELNFTSAAVRRNFSNYSAWHQRGFIMQGALRRLQQRQWREEEADNNLRDGMLSQAWGQLEEDLTLLTTAIYCDPLDQSAWYYAKFLIHASKQLTALPFASTAVPIDITAKLDEVCLDLVGEERRLGEDMETYWPYLHLATSLLTSIKKSNDGNSSDVISDRQSALKLAREVWAALQPQGRHVNGDDDCIKCLQELCAHLTTADPLRAGMYKYFLSEVTTA”, the “soluble on expression in E. coli” value is on record as “not soluble”. Consider “MALPLPDPSEQAYSDTLKTMLHERIAHSGGWISFADYMETVLYTPETGYYSGGAAKFGTAGDFVTAPEISPLFGQALARQIAPILSAVNQGSILEFGAGSGKLAVDLLCALEELNNLPQHYYILDLSADLQQRQRAMIEQHIPHLASRVSWLSALPEQFEGLILANEVLDAMPVHLVAWQNGNIAERGVIWKDQGPVWQDQPLAAGELLDVARQLPPADQFSYPLYISEISLTNRHFICSLAMLLQRGAILLVDYGFGQNEYYHPQRHQGTLMCHYRHHAHDDPFFLPGLQDITSHVDFSTIARTALDSGLQLAGYTTQAHFLINCGITDLLARTPADQPGSYLPLVSQVQRLVSPAEMGELFKVMVLSRDIDIDAASCGFTRGDLRRLLLEHHHHHH”, for which the “soluble on expression in E. coli” value is “not soluble”. The result for “GSMTEETHPDDDSYIVRVKAVVMTRDDSSGGWFPQEGGGISRVGVCKVMHPEGNGRSGFLIHGERQKDKLVVLECYVRKDLVYTKANPTFHHWKVDNRKFGLTFQSPADARAFDRGVRKAIEDLIE” reads “soluble”; that for “MLNMPAEFEQFHWMVDMVQNVDMGLVVIDRDYNVQVWNGFMTHHSGLQSHEAIGRSIFDIFPEIPPEWFKLKTKPVYDLGCRSFITWRQRPYLFRCRNVRPVTQQAEFMYQNVTLNPMRTPTGKINSLFLSIQDATAEALMSQ”, “not soluble”; that for “MKEHSIDIQLSHPDDLFHLFGSNERHLRLMEEELDVVIHARTEIVQVLGEESACEEARQVIQALMVLVNRGMTVGTPDVVTAISMVKNDEIDKFVALYEEEIIKDNTGKPIRVKTLGQKLYVDSVKQHDVTFGIGPAGTGKTFLAVTLAVTALKRGQVKRIILTRPAVEAGESLGFLPGDLKEKVDPYLRPVYDALYQILGKDQTTRLMEREIIEIAPLAYMRGRTLDDAFVILDEAQNTTIMQMKMFLTRLGFHSKMIVNGDISQIDLPRNVKSGLIDAQEKLKNIHQIDFVHFSAKDVVRHPVVAQIIRAYEYSTEVAHD”, “not soluble”. Regarding “MPDRTTDDFGPFTEQIRGTIDGMGTAEFDALPVGAIQVDGSGVIHRYNRTESRLSGRIPERVIGRNFFTEVAPCTNIPAFSGRFMDGVTSGTLDARFDFVFDFQMAPVRVQIRMQNAGVPDRYWIFVRK”, the “soluble on expression in E. coli” value is reported as “soluble”. “MGSDKIHHHHHHMPKEKYEPPDPRRMYTIMSSEEAANGKKSHWAELEISGKVRSLSSSLWSLTHLTALHLSDNSLSCIPSDIAKLHNLVYLDLSHNQIQSLPAELGNMVSLRELHLNYNQLRVLPFELGKLFQLQTLSLKGNPLTQDILNLCLEPDGTRRLLNYLLDNLSVSTEQPPPRSWIMLQEPDRTRPTALFSVMCYNVLCDKYATRQLYGYCPSWALNWDYRKKAIIQEILSCNADIISLQEVETEQYYSFFLVELKERGYNGFFSPKSRARTMSEQERKHVDGCAIFFKTEKFTLVQKHTVEFNQLAMANSEGSEAMLNRVMTKDNIGVAVLLELRKELIEMSSGKPHLGTEKQLILVANAHMHWDPEYSDVKLVQTMMFLSEVKNIIDKASRSLKSSVLGECGTIPLVLCADLNSLPDSGVVEYLSTGGVETNHKDFKELRYNESLTNFSCNGKNGMTNGRITHGFKLKSAYENGLMPYTNYTFDFKGIIDYIFYSKPQLNTLAILGPLDHHWLVENNISGCPHPLIPSDHFSLFAQLELLLPFLPQVNGIHLPGRR”: the “soluble on expression in E. coli” value is given as “not soluble”. The result for “MGSDKIHHHHHHMSLQFDHETLGQRVLFGSGEAAQNLAAEISRLDAKNVMVVAGDFELPMARQVAADIDVKVWHSNVVMHVPIETAEEARSVAKENDIDVVVCVGGGSTTGLAKAIAMTTALPIIAVPTTYAGSEATNVWGLTEAARKTTGVDNKVLPVTVIYDSALTMSLPVEMSVASGLNGLAHCIDSLWGPKADPINAAMAAEGIRALSAGLPKIVADAQDVDGRDEALYGAYLAAVSFASAGSGLHHKICHVLGGTFNLPHAQTHATVLPYVLAFNAPYAPQAEQRAAAAFGSATALEGLQQLRAQVGAPQRLSDYGFTAAGIPEAVEIILEKVPANNPRTVTEENLTALLTTALNGDDPATLN” reads “not soluble”. Regarding “MTWADEVLAGHPFVVAHRGASAARPEHTLAAYDLALKEGADGVECDVRLTRDGHLVCVHDRRLDRTSTGAGLVSTMTLAQLRELEYGAWHDSWRPDGSHGDTSLLTLDALVSLVLDWHRPVKIFVETKHPVRYGSLVENKLLALLHRFGIAAPASADRSRAVVMSFSAAAVWRIRRAAPLLPTVLLGKTPRYLTSSAATAVGATAVGPSLPALKEYPQLVDRSAAQGRAVYCWNVDEYEDIDFCREVGVAWIGTHHPGRTKAWLEDGRANGTTR”, the “soluble on expression in E. coli” value is given as “not soluble”. The result for “MTSIGTGYDLSNSVFSPDGRNFQVEYAVKAVENGTTSIGIKCNDGVVFAVEKLITSKLLVPQKNVKIQVVDRHIGCVYSGLIPDGRHLVNRGREEAASFKKLYKTPIPIPAFADRLGQYVQAHTLYNSVRPFGVSTIFGGVDKNGAHLYMLEPSGSYWGYKGAATGKGRQSAKAELEKLVDHHPEGLSAREAVKQAAKIIYLAHEDNKEKDFELEISWCSLSETNGLHKFVKGDLLQEAIDFAQKEINGDDDEDEDDSDNVMSSDDENAPVATNANATTDQEGDIHLE” reads “soluble”.

The record behind these values is the DeepSol protein solubility set.
